Test results from the supplement of paper PMC10567573.

B1: ANKRD17 (parent)
chain: EMVRFLLEAGADQEHKTDEMHTAL
B2: DLC1 (parent)
chain: AEVVKIRDSFSNQNTETKDTKSR
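Further: lentivirally expressed fusions sorted by FACS into six bins by GFP to DsRed ratio, PSI derived from sequencing read proportions per bin multiplied by bin number.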

Variants of: B1
Experiment: protein stability index of a GFP-peptide fusion (GPS, HEK-293T) (PSI 1-6); higher = more stable
Conditions: c terminus: a fixed tail appended
Variant EMVRDLLEAGADQEHKTDEMHTAL [F5D] has a protein stability index of 4.92.
EMVRHLLEAGADQEHKTDEMHTAL [F5H] gave a protein stability index of 3.48.
For EMVRCLLEAGADQEHKTDEMHTAL [F5C], the protein stability index was 3.77.
EMVRALLEAGADQEHKTDEMHTAL [F5A] showed a protein stability index of 3.9.
Variant EMVRELLEAGADQEHKTDEMHTAL [F5E] has a protein stability index of 4.71.
Work on EMVRGLLEAGADQEHKTDEMHTAL [F5G] yielded a protein stability index of 4.11.
EMSRFLLEAGADQEHKTDEMHTAL [V3S] showed a protein stability index of 4.82.
In the case of EMMRFLLEAGADQEHKTDEMHTAL [V3M], the protein stability index is reported as 2.87.
Variant EMNRFLLEAGADQEHKTDEMHTAL [V3N] has a protein stability index of 4.47.
For EMQRFLLEAGADQEHKTDEMHTAL [V3Q], the protein stability index was 4.44.
In the case of EMTRFLLEAGADQEHKTDEMHTAL [V3T], the protein stability index is reported as 4.51.
Work on EMARFLLEAGADQEHKTDEMHTAL [V3A] yielded a protein stability index of 4.03.
For EMRRFLLEAGADQEHKTDEMHTAL [V3R], the protein stability index was 4.56.
EMHRFLLEAGADQEHKTDEMHTAL [V3H] gave a protein stability index of 4.55.
Work on EMYRFLLEAGADQEHKTDEMHTAL [V3Y] yielded a protein stability index of 3.02.
In the case of EMGRFLLEAGADQEHKTDEMHTAL [V3G], the protein stability index is reported as 4.81.
Work on EMWRFLLEAGADQEHKTDEMHTAL [V3W] yielded a protein stability index of 2.65.
For EMCRFLLEAGADQEHKTDEMHTAL [V3C], the protein stability index was 3.84.
For EMIRFLLEAGADQEHKTDEMHTAL [V3I], the protein stability index was 3.11.
For EMERFLLEAGADQEHKTDEMHTAL [V3E], the protein stability index was 5.24.
For EMDRFLLEAGADQEHKTDEMHTAL [V3D], the protein stability index was 5.21.
EMPRFLLEAGADQEHKTDEMHTAL [V3P] showed a protein stability index of 4.83.
EMKRFLLEAGADQEHKTDEMHTAL [V3K] showed a protein stability index of 4.2.
For EMFRFLLEAGADQEHKTDEMHTAL [V3F], the protein stability index was 2.97.
With EMLRFLLEAGADQEHKTDEMHTAL [V3L] the protein stability index was 2.62.
Variant EMVHFLLEAGADQEHKTDEMHTAL [R4H] has a protein stability index of 3.2.
Work on EMVIFLLEAGADQEHKTDEMHTAL [R4I] yielded a protein stability index of 2.19.
Variant EMVNFLLEAGADQEHKTDEMHTAL [R4N] has a protein stability index of 3.22.
With EMVLFLLEAGADQEHKTDEMHTAL [R4L] the protein stability index was 2.35.
For EMVFFLLEAGADQEHKTDEMHTAL [R4F], the protein stability index was 2.77.
With EMVPFLLEAGADQEHKTDEMHTAL [R4P] the protein stability index was 4.8.
Variant EMVSFLLEAGADQEHKTDEMHTAL [R4S] has a protein stability index of 3.64.
Work on EMVKFLLEAGADQEHKTDEMHTAL [R4K] yielded a protein stability index of 3.22.
Work on EMVWFLLEAGADQEHKTDEMHTAL [R4W] yielded a protein stability index of 2.08.
Variant EMVAFLLEAGADQEHKTDEMHTAL [R4A] has a protein stability index of 2.99.
In the case of EMVMFLLEAGADQEHKTDEMHTAL [R4M], the protein stability index is reported as 2.46.
Variant EMVTFLLEAGADQEHKTDEMHTAL [R4T] has a protein stability index of 3.22.
For EMVVFLLEAGADQEHKTDEMHTAL [R4V], the protein stability index was 2.65.
EMVGFLLEAGADQEHKTDEMHTAL [R4G] showed a protein stability index of 3.86.
Work on EMVDFLLEAGADQEHKTDEMHTAL [R4D] yielded a protein stability index of 4.17.
EMVQFLLEAGADQEHKTDEMHTAL [R4Q] showed a protein stability index of 3.61.
EMVCFLLEAGADQEHKTDEMHTAL [R4C] showed a protein stability index of 3.14.
In the case of EMVYFLLEAGADQEHKTDEMHTAL [R4Y], the protein stability index is reported as 2.35.
In the case of EMVEFLLEAGADQEHKTDEMHTAL [R4E], the protein stability index is reported as 3.47.
In the case of YMVRFLLEAGADQEHKTDEMHTAL [E1Y], the protein stability index is reported as 2.54.
With QMVRFLLEAGADQEHKTDEMHTAL [E1Q] the protein stability index was 2.9.
Work on PMVRFLLEAGADQEHKTDEMHTAL [E1P] yielded a protein stability index of 4.17.
For KMVRFLLEAGADQEHKTDEMHTAL [E1K], the protein stability index was 2.48.
With HMVRFLLEAGADQEHKTDEMHTAL [E1H] the protein stability index was 2.75.
GMVRFLLEAGADQEHKTDEMHTAL [E1G] showed a protein stability index of 3.41.
In the case of AMVRFLLEAGADQEHKTDEMHTAL [E1A], the protein stability index is reported as 2.3.
With NMVRFLLEAGADQEHKTDEMHTAL [E1N] the protein stability index was 3.37.
RMVRFLLEAGADQEHKTDEMHTAL [E1R] showed a protein stability index of 2.81.
In the case of MMVRFLLEAGADQEHKTDEMHTAL [E1M], the protein stability index is reported as 1.97.
WMVRFLLEAGADQEHKTDEMHTAL [E1W] gave a protein stability index of 2.05.
Work on IMVRFLLEAGADQEHKTDEMHTAL [E1I] yielded a protein stability index of 1.74.
Work on DMVRFLLEAGADQEHKTDEMHTAL [E1D] yielded a protein stability index of 2.82.
In the case of TMVRFLLEAGADQEHKTDEMHTAL [E1T], the protein stability index is reported as 2.73.
In the case of VMVRFLLEAGADQEHKTDEMHTAL [E1V], the protein stability index is reported as 2.12.
For SMVRFLLEAGADQEHKTDEMHTAL [E1S], the protein stability index was 3.41.
LMVRFLLEAGADQEHKTDEMHTAL [E1L] gave a protein stability index of 2.16.
Work on FMVRFLLEAGADQEHKTDEMHTAL [E1F] yielded a protein stability index of 2.56.
For CMVRFLLEAGADQEHKTDEMHTAL [E1C], the protein stability index was 2.48.
Work on EHVRFLLEAGADQEHKTDEMHTAL [M2H] yielded a protein stability index of 4.21.
ECVRFLLEAGADQEHKTDEMHTAL [M2C] gave a protein stability index of 3.4.
With EFVRFLLEAGADQEHKTDEMHTAL [M2F] the protein stability index was 1.97.
For EGVRFLLEAGADQEHKTDEMHTAL [M2G], the protein stability index was 4.74.
EAVRFLLEAGADQEHKTDEMHTAL [M2A] showed a protein stability index of 3.71.
Variant ERVRFLLEAGADQEHKTDEMHTAL [M2R] has a protein stability index of 4.21.
With EVVRFLLEAGADQEHKTDEMHTAL [M2V] the protein stability index was 2.73.
For EQVRFLLEAGADQEHKTDEMHTAL [M2Q], the protein stability index was 4.64.
Work on EYVRFLLEAGADQEHKTDEMHTAL [M2Y] yielded a protein stability index of 2.81.
EIVRFLLEAGADQEHKTDEMHTAL [M2I] showed a protein stability index of 1.93.
In the case of ENVRFLLEAGADQEHKTDEMHTAL [M2N], the protein stability index is reported as 5.32.
Variant EWVRFLLEAGADQEHKTDEMHTAL [M2W] has a protein stability index of 2.5.
In the case of EDVRFLLEAGADQEHKTDEMHTAL [M2D], the protein stability index is reported as 5.29.
In the case of ETVRFLLEAGADQEHKTDEMHTAL [M2T], the protein stability index is reported as 4.4.
ELVRFLLEAGADQEHKTDEMHTAL [M2L] showed a protein stability index of 1.95.
EPVRFLLEAGADQEHKTDEMHTAL [M2P] gave a protein stability index of 4.75.
Variant EEVRFLLEAGADQEHKTDEMHTAL [M2E] has a protein stability index of 4.73.
With EKVRFLLEAGADQEHKTDEMHTAL [M2K] the protein stability index was 4.64.
For ESVRFLLEAGADQEHKTDEMHTAL [M2S], the protein stability index was 4.63.

Variants of: B2
Experiment: as above
Conditions: c terminus: native
With AEVVKIRDSFSNQHTETKDTKSR [N14H] the protein stability index was 2.46.
AEVVKIRDSFSNQSTETKDTKSR [N14S] showed a protein stability index of 1.96.
Variant AEVVKIRDSFSNQLTETKDTKSR [N14L] has a protein stability index of 2.09.
For AEVVKIRDSFSNQCTETKDTKSR [N14C], the protein stability index was 2.16.
AEVVKIRDSFSNQVTETKDTKSR [N14V] showed a protein stability index of 1.66.
In the case of AEVVKIRDSFSNQDTETKDTKSR [N14D], the protein stability index is reported as 2.33.
Variant AEVVKIRDSFSNQNTETKNTKSR [D19N] has a protein stability index of 3.63.
AEVVKIRDSFSNQNTETKFTKSR [D19F] gave a protein stability index of 1.92.
Variant AEVVKIRDSFSNQNTETKLTKSR [D19L] has a protein stability index of 2.1.
In the case of AEVVKIRDSFSNQNTETKGTKSR [D19G], the protein stability index is reported as 2.
In the case of AEVVKIRDSFSNQNTETKCTKSR [D19C], the protein stability index is reported as 1.83.
AEVVKIRDSFSSQNTETKDTKSR [N12S] showed a protein stability index of 1.86.
AEVVKIRDSFSQQNTETKDTKSR [N12Q] gave a protein stability index of 2.03.
